This note sets out measurements from the supplement of paper PMC9112550, “Optimization of the antimicrobial peptide Bac7 by deep mutational scanning” (BMC Biology, 2022).
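Further: peptides expressed intracellularly from a pBAD plasmid library in pooled LB shake-flask culture, induced with 0.3% L-arabinose, DNA abundance read by NGS, three biological replicates, DESeq2 with apeglm shrinkage.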

The data set concerns Escherichia coli TOP10. The data set is described as follows: shrunken log2 fold change of peptide-encoding DNA abundance (4.5 h post-induction vs induction); higher = less antimicrobial activity (less host growth inhibition). The settings on record: time post-induction: 4.5 h; library: site-saturation at positions 5, 18, 19, 20.
Turning to RRIRVRPPRLPRPRPRPIVLPRP, the “shrunken log2 fold change” value was -0.176.

Take RRIRDRPPRLPRPRPRPMTFPRP: the “shrunken log2 fold change” value was -0.0951.

Regarding RRIRVRPPRLPRPRPRPWVYPRP, the “shrunken log2 fold change” value was -0.137.

Take RRIRHRPPRLPRPRPRPTENPRP: the “shrunken log2 fold change” value is -0.418.

On to RRIRIRPPRLPRPRPRPIMPPRP, for which the “shrunken log2 fold change” value was -0.825.

On to RRIRFRPPRLPRPRPRPCFEPRP, for which the “shrunken log2 fold change” value was -0.0728.

Regarding RRIRWRPPRLPRPRPRPCKEPRP, the “shrunken log2 fold change” value was -0.125.

RRIRMRPPRLPRPRPRPMARPRP: the “shrunken log2 fold change” value is 0.465.

With RRIRKRPPRLPRPRPRPEGNPRP, the “shrunken log2 fold change” value came to 2.03.

Turning to RRIRSRPPRLPRPRPRPTYYPRP, the “shrunken log2 fold change” value was -0.42.

Consider RRIRHRPPRLPRPRPRPRTSPRP, for which the “shrunken log2 fold change” value came to 0.245.

As for RRIRTRPPRLPRPRPRPSCGPRP, the “shrunken log2 fold change” value was -0.0561.

Turning to RRIRIRPPRLPRPRPRPNDEPRP, the “shrunken log2 fold change” value is -0.781.

Regarding RRIRFRPPRLPRPRPRPFFGPRP, the “shrunken log2 fold change” value came out at 0.0944.

For RRIRRRPPRLPRPRPRPISCPRP, the “shrunken log2 fold change” value amounted to 0.00341.

Take RRIRTRPPRLPRPRPRPKHCPRP: the “shrunken log2 fold change” value was -0.0769.

RRIRPRPPRLPRPRPRPMTAPRP: the “shrunken log2 fold change” value came out at 0.162.

RRIRWRPPRLPRPRPRPEKQPRP: the “shrunken log2 fold change” value was 0.0441.

For RRIRMRPPRLPRPRPRPTDCPRP, the “shrunken log2 fold change” value was -0.0353.

In the case of RRIRKRPPRLPRPRPRPEQAPRP, the “shrunken log2 fold change” value was found to be 0.776.

In the case of RRIRLRPPRLPRPRPRPPQLPRP, the “shrunken log2 fold change” value worked out at 0.206.

For RRIRMRPPRLPRPRPRPFSGPRP, the “shrunken log2 fold change” value is -0.0134.

On to RRIRSRPPRLPRPRPRPMGAPRP, for which the “shrunken log2 fold change” value stood at 0.188.

On to RRIRSRPPRLPRPRPRPDGHPRP, for which the “shrunken log2 fold change” value was -0.0734.

Take RRIRYRPPRLPRPRPRPWAAPRP: the “shrunken log2 fold change” value was -0.0914.

Consider RRIRPRPPRLPRPRPRPMYPPRP, for which the “shrunken log2 fold change” value was -0.135.

In the case of RRIRGRPPRLPRPRPRPNVQPRP, the “shrunken log2 fold change” value is 1.08.

As to RRIRCRPPRLPRPRPRPRGPPRP, the “shrunken log2 fold change” value turned out to be 0.816.

In the case of RRIRCRPPRLPRPRPRPYCEPRP, the “shrunken log2 fold change” value was -0.195.

With RRIRVRPPRLPRPRPRPEFEPRP, the “shrunken log2 fold change” value was -0.0823.

For the sequence RRIRHRPPRLPRPRPRPAVLPRP, the “shrunken log2 fold change” value came out at 0.0684.

As for RRIRERPPRLPRPRPRPWCVPRP, the “shrunken log2 fold change” value was -0.94.

In the case of RRIRNRPPRLPRPRPRPHGRPRP, the “shrunken log2 fold change” value is 0.00746.

Regarding RRIRKRPPRLPRPRPRPAMGPRP, the “shrunken log2 fold change” value amounted to 0.14.

Regarding RRIRRRPPRLPRPRPRPQVMPRP, the “shrunken log2 fold change” value is 0.0874.

On to RRIRFRPPRLPRPRPRPCKVPRP, for which the “shrunken log2 fold change” value came to 0.0595.

With RRIRHRPPRLPRPRPRPNDRPRP, the “shrunken log2 fold change” value is -0.104.

RRIRPRPPRLPRPRPRPLKNPRP: the “shrunken log2 fold change” value turned out to be 0.186.

Turning to RRIRHRPPRLPRPRPRPMVYPRP, the “shrunken log2 fold change” value is -0.0125.

Turning to RRIRARPPRLPRPRPRPNPVPRP, the “shrunken log2 fold change” value came to 0.0917.

Regarding RRIRNRPPRLPRPRPRPSMPPRP, the “shrunken log2 fold change” value was -0.139.

Turning to RRIRVRPPRLPRPRPRPWAIPRP, the “shrunken log2 fold change” value was -0.0122.

Turning to RRIRSRPPRLPRPRPRPFAQPRP, the “shrunken log2 fold change” value is 0.185.

For the sequence RRIRYRPPRLPRPRPRPLTGPRP, the “shrunken log2 fold change” value was -0.023.

With RRIRQRPPRLPRPRPRPRYLPRP, the “shrunken log2 fold change” value was -0.422.

With RRIRPRPPRLPRPRPRPLQLPRP, the “shrunken log2 fold change” value was -0.0598.

As for RRIRCRPPRLPRPRPRPWEDPRP, the “shrunken log2 fold change” value stood at 0.156.

Consider RRIRFRPPRLPRPRPRPVENPRP, for which the “shrunken log2 fold change” value was -0.109.

For RRIRARPPRLPRPRPRPEDLPRP, the “shrunken log2 fold change” value was determined as 0.0217.

With RRIRHRPPRLPRPRPRPNFNPRP, the “shrunken log2 fold change” value was -0.509.

For RRIRTRPPRLPRPRPRPIRAPRP, the “shrunken log2 fold change” value was -0.0672.

As for RRIRSRPPRLPRPRPRPPDTPRP, the “shrunken log2 fold change” value stood at 0.237.

In the case of RRIRIRPPRLPRPRPRPTVLPRP, the “shrunken log2 fold change” value is -0.369.

With RRIRFRPPRLPRPRPRPMPWPRP, the “shrunken log2 fold change” value came to 0.157.

For RRIRDRPPRLPRPRPRPATMPRP, the “shrunken log2 fold change” value was determined as 0.168.

RRIRVRPPRLPRPRPRPDENPRP: the “shrunken log2 fold change” value was -0.0618.

Regarding RRIRTRPPRLPRPRPRPIYAPRP, the “shrunken log2 fold change” value turned out to be 0.0866.

Consider RRIRDRPPRLPRPRPRPLFHPRP, for which the “shrunken log2 fold change” value was -0.152.

For RRIRPRPPRLPRPRPRPIHSPRP, the “shrunken log2 fold change” value is -0.0694.

RRIRRRPPRLPRPRPRPCNRPRP: the “shrunken log2 fold change” value is -0.509.

Take RRIRARPPRLPRPRPRPSPEPRP: the “shrunken log2 fold change” value amounted to 0.41.

In the case of RRIRDRPPRLPRPRPRPKTKPRP, the “shrunken log2 fold change” value is -0.0788.

As for RRIRWRPPRLPRPRPRPMAAPRP, the “shrunken log2 fold change” value came out at 0.318.

In the case of RRIRPRPPRLPRPRPRPAGLPRP, the “shrunken log2 fold change” value came to 0.279.

In the case of RRIRCRPPRLPRPRPRPILWPRP, the “shrunken log2 fold change” value turned out to be 0.0346.

Take RRIRWRPPRLPRPRPRPGKVPRP: the “shrunken log2 fold change” value is -0.132.

Consider RRIRGRPPRLPRPRPRPCFFPRP, for which the “shrunken log2 fold change” value is 0.392.

In the case of RRIRQRPPRLPRPRPRPSLRPRP, the “shrunken log2 fold change” value is 0.239.

Consider RRIRQRPPRLPRPRPRPWKNPRP, for which the “shrunken log2 fold change” value amounted to 0.033.

For RRIRFRPPRLPRPRPRPMQAPRP, the “shrunken log2 fold change” value turned out to be 0.119.

Consider RRIRMRPPRLPRPRPRPESCPRP, for which the “shrunken log2 fold change” value was 3.68.

Take RRIRHRPPRLPRPRPRPRLWPRP: the “shrunken log2 fold change” value was found to be 0.63.

As to RRIRHRPPRLPRPRPRPLIGPRP, the “shrunken log2 fold change” value was -0.155.

As for RRIRRRPPRLPRPRPRPKSAPRP, the “shrunken log2 fold change” value was 0.237.

In the case of RRIRPRPPRLPRPRPRPLNAPRP, the “shrunken log2 fold change” value was -0.0965.

As for RRIRQRPPRLPRPRPRPDFDPRP, the “shrunken log2 fold change” value was -0.0668.

For RRIRCRPPRLPRPRPRPTFGPRP, the “shrunken log2 fold change” value is -0.213.

Turning to RRIRHRPPRLPRPRPRPFILPRP, the “shrunken log2 fold change” value is -0.675.

For the sequence RRIRQRPPRLPRPRPRPYCDPRP, the “shrunken log2 fold change” value is -0.431.

Consider RRIRDRPPRLPRPRPRPGGLPRP, for which the “shrunken log2 fold change” value was determined as 0.501.

For RRIRLRPPRLPRPRPRPTLLPRP, the “shrunken log2 fold change” value came out at 0.0589.

For the sequence RRIRCRPPRLPRPRPRPWYVPRP, the “shrunken log2 fold change” value was -0.461.

As to RRIRTRPPRLPRPRPRPQWYPRP, the “shrunken log2 fold change” value was -0.524.

On to RRIRTRPPRLPRPRPRPNRLPRP, for which the “shrunken log2 fold change” value was 0.0657.

Take RRIRDRPPRLPRPRPRPYHFPRP: the “shrunken log2 fold change” value was -0.277.

On to RRIRKRPPRLPRPRPRPWKGPRP, for which the “shrunken log2 fold change” value was found to be 0.0195.

Regarding RRIRIRPPRLPRPRPRPLEVPRP, the “shrunken log2 fold change” value was -0.0958.

Take RRIRVRPPRLPRPRPRPRYVPRP: the “shrunken log2 fold change” value is -0.218.

On to RRIRLRPPRLPRPRPRPHRPPRP, for which the “shrunken log2 fold change” value was -0.189.

On to RRIRYRPPRLPRPRPRPMCEPRP, for which the “shrunken log2 fold change” value was -0.283.

For RRIRERPPRLPRPRPRPPVAPRP, the “shrunken log2 fold change” value was determined as 0.658.

On to RRIRKRPPRLPRPRPRPSGAPRP, for which the “shrunken log2 fold change” value came out at 0.539.

For RRIRTRPPRLPRPRPRPSCTPRP, the “shrunken log2 fold change” value is -0.643.

Consider RRIRDRPPRLPRPRPRPGFMPRP, for which the “shrunken log2 fold change” value came to 0.219.

On to RRIRTRPPRLPRPRPRPIRIPRP, for which the “shrunken log2 fold change” value is -0.202.

As to RRIRRRPPRLPRPRPRPYDNPRP, the “shrunken log2 fold change” value was -0.636.

As to RRIRKRPPRLPRPRPRPQVMPRP, the “shrunken log2 fold change” value is -0.162.

Consider RRIRCRPPRLPRPRPRPVKCPRP, for which the “shrunken log2 fold change” value is -0.432.

RRIRKRPPRLPRPRPRPKMMPRP: the “shrunken log2 fold change” value turned out to be 0.421.

Turning to RRIRVRPPRLPRPRPRPVYGPRP, the “shrunken log2 fold change” value is -0.167.

As for RRIRSRPPRLPRPRPRPWRNPRP, the “shrunken log2 fold change” value was -0.0428.

As for RRIRTRPPRLPRPRPRPTRGPRP, the “shrunken log2 fold change” value stood at 0.705.

Regarding RRIRERPPRLPRPRPRPPQRPRP, the “shrunken log2 fold change” value came out at 0.315.

On to RRIRPRPPRLPRPRPRPMHAPRP, for which the “shrunken log2 fold change” value came to 0.159.

For RRIRNRPPRLPRPRPRPAASPRP, the “shrunken log2 fold change” value turned out to be 0.739.

As to RRIRRRPPRLPRPRPRPCHLPRP, the “shrunken log2 fold change” value is -0.0646.

In the case of RRIRCRPPRLPRPRPRPYPLPRP, the “shrunken log2 fold change” value was -0.191.

Take RRIRERPPRLPRPRPRPYIKPRP: the “shrunken log2 fold change” value is -0.573.

Turning to RRIRSRPPRLPRPRPRPTSCPRP, the “shrunken log2 fold change” value is -0.0946.

For RRIRSRPPRLPRPRPRPVNYPRP, the “shrunken log2 fold change” value was -0.0921.

Regarding RRIRRRPPRLPRPRPRPTNPPRP, the “shrunken log2 fold change” value was 0.122.

For RRIRMRPPRLPRPRPRPNLIPRP, the “shrunken log2 fold change” value was -0.0317.

With RRIRGRPPRLPRPRPRPSLTPRP, the “shrunken log2 fold change” value is 0.78.

With RRIRYRPPRLPRPRPRPHQKPRP, the “shrunken log2 fold change” value is -0.248.

As for RRIRPRPPRLPRPRPRPLMSPRP, the “shrunken log2 fold change” value is -0.443.

As for RRIRQRPPRLPRPRPRPRTYPRP, the “shrunken log2 fold change” value is -0.049.

For the sequence RRIRCRPPRLPRPRPRPSPSPRP, the “shrunken log2 fold change” value came to 0.128.

Consider RRIRRRPPRLPRPRPRPDIHPRP, for which the “shrunken log2 fold change” value was -0.122.

For RRIRFRPPRLPRPRPRPTWCPRP, the “shrunken log2 fold change” value is -0.0549.

With RRIRARPPRLPRPRPRPDFTPRP, the “shrunken log2 fold change” value is -0.0266.

For RRIRKRPPRLPRPRPRPEIFPRP, the “shrunken log2 fold change” value came to 0.368.

Take RRIRFRPPRLPRPRPRPKVYPRP: the “shrunken log2 fold change” value is -0.382.

Take RRIRSRPPRLPRPRPRPKNPPRP: the “shrunken log2 fold change” value was -0.11.

RRIRWRPPRLPRPRPRPYIRPRP: the “shrunken log2 fold change” value was -0.359.

On to RRIRDRPPRLPRPRPRPSMVPRP, for which the “shrunken log2 fold change” value is -0.24.
